# Patent publication US20210388087A1 (Chugai, published 2021)
# Target: T1, CD3 epsilon homodimer protein (UniProt P07766 23-126)
# T1 construct: also called CD3 (CD3 epsilon)
# Assay: SPR, antibody over immobilised CD3e homodimer;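 further: SPR at 25 °C with CD3 epsilon homodimer amine-coupled to a CM4 sensor chip and antibody flowed over as analyte in HBS-EP+ running buffer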
# T1 sequence (P07766 23-126): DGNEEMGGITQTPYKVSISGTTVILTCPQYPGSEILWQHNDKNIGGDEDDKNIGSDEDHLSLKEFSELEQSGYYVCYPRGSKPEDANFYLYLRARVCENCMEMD
row,KD ratio to GLS3000,Binder
1,0.97,"CE115HA000/GLS3000 R24S (antibody, IgG1, name in Kabat numbering, V domains shown, one-arm IgG1) VH: QVQLVESGGGVVQPGRSLRLSCAASGFTFSNAWMHWVRQAPGKGLEWVAQIKAKSNNYATYYAESVKGRFTISRDDSKNSLYLQMNSLKTEDTAVYYCRYVHYGAYYGVDAWGQGTTVTVSS VL: DIVMTQSPLSLPVTPGEPASISCSSSQSLVHSNRNTYLHWYQQKPGQAPRLLIYKVSNRFSGVPDRFSGSGSGTDFTLKISRVEAEDVGVYYCGQGTQVPYTFGQGTKLEIK"
2,1.03,"CE115HA000/GLS3000 R24T (antibody, IgG1, name in Kabat numbering, V domains shown, one-arm IgG1) VH: QVQLVESGGGVVQPGRSLRLSCAASGFTFSNAWMHWVRQAPGKGLEWVAQIKAKSNNYATYYAESVKGRFTISRDDSKNSLYLQMNSLKTEDTAVYYCRYVHYGAYYGVDAWGQGTTVTVSS VL: DIVMTQSPLSLPVTPGEPASISCTSSQSLVHSNRNTYLHWYQQKPGQAPRLLIYKVSNRFSGVPDRFSGSGSGTDFTLKISRVEAEDVGVYYCGQGTQVPYTFGQGTKLEIK"
3,0.94,"CE115HA000/GLS3000 R24Y (antibody, IgG1, name in Kabat numbering, V domains shown, one-arm IgG1) VH: QVQLVESGGGVVQPGRSLRLSCAASGFTFSNAWMHWVRQAPGKGLEWVAQIKAKSNNYATYYAESVKGRFTISRDDSKNSLYLQMNSLKTEDTAVYYCRYVHYGAYYGVDAWGQGTTVTVSS VL: DIVMTQSPLSLPVTPGEPASISCYSSQSLVHSNRNTYLHWYQQKPGQAPRLLIYKVSNRFSGVPDRFSGSGSGTDFTLKISRVEAEDVGVYYCGQGTQVPYTFGQGTKLEIK"
4,1.15,"CE115HA000/GLS3000 R29A (antibody, IgG1, name in Kabat numbering, V domains shown, one-arm IgG1) VH: QVQLVESGGGVVQPGRSLRLSCAASGFTFSNAWMHWVRQAPGKGLEWVAQIKAKSNNYATYYAESVKGRFTISRDDSKNSLYLQMNSLKTEDTAVYYCRYVHYGAYYGVDAWGQGTTVTVSS VL: DIVMTQSPLSLPVTPGEPASISCRSSQSLVHSNANTYLHWYQQKPGQAPRLLIYKVSNRFSGVPDRFSGSGSGTDFTLKISRVEAEDVGVYYCGQGTQVPYTFGQGTKLEIK"
5,1.58,"CE115HA000/GLS3000 R29D (antibody, IgG1, name in Kabat numbering, V domains shown, one-arm IgG1) VH: QVQLVESGGGVVQPGRSLRLSCAASGFTFSNAWMHWVRQAPGKGLEWVAQIKAKSNNYATYYAESVKGRFTISRDDSKNSLYLQMNSLKTEDTAVYYCRYVHYGAYYGVDAWGQGTTVTVSS VL: DIVMTQSPLSLPVTPGEPASISCRSSQSLVHSNDNTYLHWYQQKPGQAPRLLIYKVSNRFSGVPDRFSGSGSGTDFTLKISRVEAEDVGVYYCGQGTQVPYTFGQGTKLEIK"
6,0.62,"CE115HA000/GLS3000 R29G (antibody, IgG1, name in Kabat numbering, V domains shown, one-arm IgG1) VH: QVQLVESGGGVVQPGRSLRLSCAASGFTFSNAWMHWVRQAPGKGLEWVAQIKAKSNNYATYYAESVKGRFTISRDDSKNSLYLQMNSLKTEDTAVYYCRYVHYGAYYGVDAWGQGTTVTVSS VL: DIVMTQSPLSLPVTPGEPASISCRSSQSLVHSNGNTYLHWYQQKPGQAPRLLIYKVSNRFSGVPDRFSGSGSGTDFTLKISRVEAEDVGVYYCGQGTQVPYTFGQGTKLEIK"
7,1.6,"CE115HA000/GLS3000 R29I (antibody, IgG1, name in Kabat numbering, V domains shown, one-arm IgG1) VH: QVQLVESGGGVVQPGRSLRLSCAASGFTFSNAWMHWVRQAPGKGLEWVAQIKAKSNNYATYYAESVKGRFTISRDDSKNSLYLQMNSLKTEDTAVYYCRYVHYGAYYGVDAWGQGTTVTVSS VL: DIVMTQSPLSLPVTPGEPASISCRSSQSLVHSNINTYLHWYQQKPGQAPRLLIYKVSNRFSGVPDRFSGSGSGTDFTLKISRVEAEDVGVYYCGQGTQVPYTFGQGTKLEIK"
8,0.9,"CE115HA000/GLS3000 R29L (antibody, IgG1, name in Kabat numbering, V domains shown, one-arm IgG1) VH: QVQLVESGGGVVQPGRSLRLSCAASGFTFSNAWMHWVRQAPGKGLEWVAQIKAKSNNYATYYAESVKGRFTISRDDSKNSLYLQMNSLKTEDTAVYYCRYVHYGAYYGVDAWGQGTTVTVSS VL: DIVMTQSPLSLPVTPGEPASISCRSSQSLVHSNLNTYLHWYQQKPGQAPRLLIYKVSNRFSGVPDRFSGSGSGTDFTLKISRVEAEDVGVYYCGQGTQVPYTFGQGTKLEIK"
9,14,"CE115HA000/GLS3000 R29P (antibody, IgG1, name in Kabat numbering, V domains shown, one-arm IgG1) VH: QVQLVESGGGVVQPGRSLRLSCAASGFTFSNAWMHWVRQAPGKGLEWVAQIKAKSNNYATYYAESVKGRFTISRDDSKNSLYLQMNSLKTEDTAVYYCRYVHYGAYYGVDAWGQGTTVTVSS VL: DIVMTQSPLSLPVTPGEPASISCRSSQSLVHSNPNTYLHWYQQKPGQAPRLLIYKVSNRFSGVPDRFSGSGSGTDFTLKISRVEAEDVGVYYCGQGTQVPYTFGQGTKLEIK"
10,1.05,"CE115HA000/GLS3000 R29S (antibody, IgG1, name in Kabat numbering, V domains shown, one-arm IgG1) VH: QVQLVESGGGVVQPGRSLRLSCAASGFTFSNAWMHWVRQAPGKGLEWVAQIKAKSNNYATYYAESVKGRFTISRDDSKNSLYLQMNSLKTEDTAVYYCRYVHYGAYYGVDAWGQGTTVTVSS VL: DIVMTQSPLSLPVTPGEPASISCRSSQSLVHSNSNTYLHWYQQKPGQAPRLLIYKVSNRFSGVPDRFSGSGSGTDFTLKISRVEAEDVGVYYCGQGTQVPYTFGQGTKLEIK"

# More lines, now with the values behind:
row,Binder,KD ratio to GLS3000
1,"CE115HA000/GLS3000 Q93E (antibody, IgG1, name in Kabat numbering, V domains shown, one-arm IgG1) VH: QVQLVESGGGVVQPGRSLRLSCAASGFTFSNAWMHWVRQAPGKGLEWVAQIKAKSNNYATYYAESVKGRFTISRDDSKNSLYLQMNSLKTEDTAVYYCRYVHYGAYYGVDAWGQGTTVTVSS VL: DIVMTQSPLSLPVTPGEPASISCRSSQSLVHSNRNTYLHWYQQKPGQAPRLLIYKVSNRFSGVPDRFSGSGSGTDFTLKISRVEAEDVGVYYCGQGTEVPYTFGQGTKLEIK",1.05
2,"CE115HA000/GLS3000 Q93P (antibody, IgG1, name in Kabat numbering, V domains shown, one-arm IgG1) VH: QVQLVESGGGVVQPGRSLRLSCAASGFTFSNAWMHWVRQAPGKGLEWVAQIKAKSNNYATYYAESVKGRFTISRDDSKNSLYLQMNSLKTEDTAVYYCRYVHYGAYYGVDAWGQGTTVTVSS VL: DIVMTQSPLSLPVTPGEPASISCRSSQSLVHSNRNTYLHWYQQKPGQAPRLLIYKVSNRFSGVPDRFSGSGSGTDFTLKISRVEAEDVGVYYCGQGTPVPYTFGQGTKLEIK",39.5
3,"CE115HA000/GLS3000 Q93R (antibody, IgG1, name in Kabat numbering, V domains shown, one-arm IgG1) VH: QVQLVESGGGVVQPGRSLRLSCAASGFTFSNAWMHWVRQAPGKGLEWVAQIKAKSNNYATYYAESVKGRFTISRDDSKNSLYLQMNSLKTEDTAVYYCRYVHYGAYYGVDAWGQGTTVTVSS VL: DIVMTQSPLSLPVTPGEPASISCRSSQSLVHSNRNTYLHWYQQKPGQAPRLLIYKVSNRFSGVPDRFSGSGSGTDFTLKISRVEAEDVGVYYCGQGTRVPYTFGQGTKLEIK",0.79
4,"CE115HA000/GLS3000 Q93S (antibody, IgG1, name in Kabat numbering, V domains shown, one-arm IgG1) VH: QVQLVESGGGVVQPGRSLRLSCAASGFTFSNAWMHWVRQAPGKGLEWVAQIKAKSNNYATYYAESVKGRFTISRDDSKNSLYLQMNSLKTEDTAVYYCRYVHYGAYYGVDAWGQGTTVTVSS VL: DIVMTQSPLSLPVTPGEPASISCRSSQSLVHSNRNTYLHWYQQKPGQAPRLLIYKVSNRFSGVPDRFSGSGSGTDFTLKISRVEAEDVGVYYCGQGTSVPYTFGQGTKLEIK",0.75
5,"CE115HA000/GLS3000 Q93Y (antibody, IgG1, name in Kabat numbering, V domains shown, one-arm IgG1) VH: QVQLVESGGGVVQPGRSLRLSCAASGFTFSNAWMHWVRQAPGKGLEWVAQIKAKSNNYATYYAESVKGRFTISRDDSKNSLYLQMNSLKTEDTAVYYCRYVHYGAYYGVDAWGQGTTVTVSS VL: DIVMTQSPLSLPVTPGEPASISCRSSQSLVHSNRNTYLHWYQQKPGQAPRLLIYKVSNRFSGVPDRFSGSGSGTDFTLKISRVEAEDVGVYYCGQGTYVPYTFGQGTKLEIK",0.76
6,"CE115HA000/GLS3000 R24A (antibody, IgG1, name in Kabat numbering, V domains shown, one-arm IgG1) VH: QVQLVESGGGVVQPGRSLRLSCAASGFTFSNAWMHWVRQAPGKGLEWVAQIKAKSNNYATYYAESVKGRFTISRDDSKNSLYLQMNSLKTEDTAVYYCRYVHYGAYYGVDAWGQGTTVTVSS VL: DIVMTQSPLSLPVTPGEPASISCASSQSLVHSNRNTYLHWYQQKPGQAPRLLIYKVSNRFSGVPDRFSGSGSGTDFTLKISRVEAEDVGVYYCGQGTQVPYTFGQGTKLEIK",1
7,"CE115HA000/GLS3000 R24D (antibody, IgG1, name in Kabat numbering, V domains shown, one-arm IgG1) VH: QVQLVESGGGVVQPGRSLRLSCAASGFTFSNAWMHWVRQAPGKGLEWVAQIKAKSNNYATYYAESVKGRFTISRDDSKNSLYLQMNSLKTEDTAVYYCRYVHYGAYYGVDAWGQGTTVTVSS VL: DIVMTQSPLSLPVTPGEPASISCDSSQSLVHSNRNTYLHWYQQKPGQAPRLLIYKVSNRFSGVPDRFSGSGSGTDFTLKISRVEAEDVGVYYCGQGTQVPYTFGQGTKLEIK",0.83
8,"CE115HA000/GLS3000 R24E (antibody, IgG1, name in Kabat numbering, V domains shown, one-arm IgG1) VH: QVQLVESGGGVVQPGRSLRLSCAASGFTFSNAWMHWVRQAPGKGLEWVAQIKAKSNNYATYYAESVKGRFTISRDDSKNSLYLQMNSLKTEDTAVYYCRYVHYGAYYGVDAWGQGTTVTVSS VL: DIVMTQSPLSLPVTPGEPASISCESSQSLVHSNRNTYLHWYQQKPGQAPRLLIYKVSNRFSGVPDRFSGSGSGTDFTLKISRVEAEDVGVYYCGQGTQVPYTFGQGTKLEIK",0.89
9,"CE115HA000/GLS3000 R24G (antibody, IgG1, name in Kabat numbering, V domains shown, one-arm IgG1) VH: QVQLVESGGGVVQPGRSLRLSCAASGFTFSNAWMHWVRQAPGKGLEWVAQIKAKSNNYATYYAESVKGRFTISRDDSKNSLYLQMNSLKTEDTAVYYCRYVHYGAYYGVDAWGQGTTVTVSS VL: DIVMTQSPLSLPVTPGEPASISCGSSQSLVHSNRNTYLHWYQQKPGQAPRLLIYKVSNRFSGVPDRFSGSGSGTDFTLKISRVEAEDVGVYYCGQGTQVPYTFGQGTKLEIK",0.92
10,"CE115HA000/GLS3000 R24P (antibody, IgG1, name in Kabat numbering, V domains shown, one-arm IgG1) VH: QVQLVESGGGVVQPGRSLRLSCAASGFTFSNAWMHWVRQAPGKGLEWVAQIKAKSNNYATYYAESVKGRFTISRDDSKNSLYLQMNSLKTEDTAVYYCRYVHYGAYYGVDAWGQGTTVTVSS VL: DIVMTQSPLSLPVTPGEPASISCPSSQSLVHSNRNTYLHWYQQKPGQAPRLLIYKVSNRFSGVPDRFSGSGSGTDFTLKISRVEAEDVGVYYCGQGTQVPYTFGQGTKLEIK",0.34
11,"CE115HA000/GLS3000 R24Q (antibody, IgG1, name in Kabat numbering, V domains shown, one-arm IgG1) VH: QVQLVESGGGVVQPGRSLRLSCAASGFTFSNAWMHWVRQAPGKGLEWVAQIKAKSNNYATYYAESVKGRFTISRDDSKNSLYLQMNSLKTEDTAVYYCRYVHYGAYYGVDAWGQGTTVTVSS VL: DIVMTQSPLSLPVTPGEPASISCQSSQSLVHSNRNTYLHWYQQKPGQAPRLLIYKVSNRFSGVPDRFSGSGSGTDFTLKISRVEAEDVGVYYCGQGTQVPYTFGQGTKLEIK",0.87
